From the supplement of paper PMC6757056 come the findings set out here.

First the molecules themselves.
B1: library; a variant is named by its letters at N, in order (parent)
chain: GCUGUCACCGAGAAACUGUGAAGUAUAUCUUAAACCUGGGCACUUAAAAGAUAUAUGGAGUUAGUAGUGCAACCUGCUCGGUCUGAUGAGUCCNNNNNNGGACGAAACAGC

± gives the standard deviation of the averaged measurements.

The variants in series [1] derive from B1. The series can be described thus: normalized RNA/DNA level without ligand (relative to sTRSVctl = 100) (log10 (% of sTRSVctl)); HEK293T; ligand: cyclic di-GMP (c-di-GMP-II aptamer); higher = less ribozyme self-cleavage, higher mRNA level. The following applies: reporter: mCherry (pCS4076), ligand present: no. The method, boiled down:
(§1)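 Only sequences with at least 100 DNA reads were analyzed, from HEK293T cells transfected with 4 µg per 6-well well of ribozyme switch library plasmids 72 h before RNA extraction with EDTA. Any ligand was added 1 h before transfection. RNA level was defined as RNA over DNA reads, normalized to a spiked-in non-cleaving sequence or to the top sequences, then scaled and log-transformed. The top set was 25 sequences, and the scaling was ×100 followed by log10.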

The variants in series [2] derive from B1. The series is described as follows: normalized RNA/DNA level with ligand (relative to sTRSVctl = 100) (log10 (% of sTRSVctl)); HEK293T; ligand: cyclic di-GMP (c-di-GMP-II aptamer); ligand concentration (+) RNA-Seq: 1 mM; higher = less ribozyme self-cleavage, higher mRNA level. The following applies: reporter: mCherry (pCS4076), ligand present: yes. The gist of the method:
as §1

For the variant CGGCAG, the “normalized RNA/DNA level without ligand (log10)” value in series [1] worked out at 1.792 ± 0.0062. Besides, the “normalized RNA/DNA level with ligand (log10)” value in series [2] is 1.86 ± 0.077.
On to AGCGCA, for which, in series [1], the “normalized RNA/DNA level without ligand (log10)” value was 1.661 ± 0.005. The “normalized RNA/DNA level with ligand (log10)” value in series [2] was determined as 1.78 ± 0.12.
The corresponding values for AGCGCG are 1.708 ± 0.0043 and 1.83 ± 0.12.
Taken in the same sequence, the figures for AGCGCU were 1.7 ± 0.044 and 1.82 ± 0.17.
Taken in the same sequence, the figures for AGCGCC were 1.7734 ± 0.0015 and 1.91 ± 0.082.
With UGCAUA, the “normalized RNA/DNA level without ligand (log10)” value in series [1] came out at 1.7 ± 0.027. Besides, the “normalized RNA/DNA level with ligand (log10)” value in series [2] is 1.84 ± 0.084.
On to UGCAUU, for which the “normalized RNA/DNA level without ligand (log10)” value in series [1] was 1.713 ± 0.0057. Further, in series [2], the “normalized RNA/DNA level with ligand (log10)” value was 1.84 ± 0.056.
The corresponding values for CGCUCC are 1.77 ± 0.035 and 1.89 ± 0.084.
Taken in the same sequence, the figures for CGCUCG were 1.77 ± 0.077 and 1.88 ± 0.16.
Taken in the same sequence, the figures for CGCUCA were 1.47 ± 0.05 and 1.68 ± 0.15.
As for UGCAGU, the “normalized RNA/DNA level without ligand (log10)” value in series [1] was 1.66 ± 0.038. Moreover, the “normalized RNA/DNA level with ligand (log10)” value in series [2] was 1.83 ± 0.11.
The corresponding values for UGCAGG are 1.747 ± 0.003 and 1.85 ± 0.12.
Turning to UGCCCU, the “normalized RNA/DNA level without ligand (log10)” value in series [1] amounted to 1.79 ± 0.021. Moreover, in series [2], the “normalized RNA/DNA level with ligand (log10)” value was found to be 1.89 ± 0.057.
Taken in the same sequence, the figures for UGCCCC were 1.857 ± 0.013 and 1.93 ± 0.092.
Taken in the same sequence, the figures for UGCCCA were 1.88 ± 0.032 and 1.96 ± 0.096.
For GGCUGC, the “normalized RNA/DNA level without ligand (log10)” value in series [1] is 1.7019 ± 0.0016. Moreover, the “normalized RNA/DNA level with ligand (log10)” value in series [2] was found to be 1.83 ± 0.11.
The corresponding values for GGCUGU are 1.68 ± 0.05 and 1.79 ± 0.18.
The corresponding values for GGCUGG are 1.746 ± 0.013 and 1.82 ± 0.092.
Taken in the same sequence, the figures for GGCUGA were 1.54 ± 0.052 and 1.71 ± 0.14.
As to GGGAUU, in series [1], the “normalized RNA/DNA level without ligand (log10)” value is 1.66 ± 0.024. In addition, in series [2], the “normalized RNA/DNA level with ligand (log10)” value was 1.77 ± 0.12.
Taken in the same sequence, the figures for GGGAUC were 1.66 ± 0.064 and 1.77 ± 0.09.
Taken in the same sequence, the figures for GGGAUA were 1.54 ± 0.19 and 1.66 ± 0.044.
The corresponding values for CGGCGA are 1.49 ± 0.068 and 1.67 ± 0.11.
As for AGCGUU, the “normalized RNA/DNA level without ligand (log10)” value in series [1] is 1.678 ± 0.0089. Moreover, the “normalized RNA/DNA level with ligand (log10)” value in series [2] was found to be 1.82 ± 0.16.
Taken in the same sequence, the figures for AGCGUA were 1.55 ± 0.087 and 1.71 ± 0.1.
Taken in the same sequence, the figures for CGCGCC were 1.75 ± 0.025 and 1.88 ± 0.14.
In the case of CGCGCG, in series [1], the “normalized RNA/DNA level without ligand (log10)” value came to 1.83 ± 0.025. The “normalized RNA/DNA level with ligand (log10)” value in series [2] was determined as 1.92 ± 0.038.
Taken in the same sequence, the figures for CGCGCA were 1.65 ± 0.046 and 1.75 ± 0.13.
The corresponding values for CGCGCU are 1.702 ± 0.016 and 1.83 ± 0.11.
In the case of GGGACU, the “normalized RNA/DNA level without ligand (log10)” value in series [1] was found to be 1.68 ± 0.031. For the same variant, the “normalized RNA/DNA level with ligand (log10)” value in series [2] was determined as 1.83 ± 0.056.
The corresponding values for GGGACA are 1.7 ± 0.042 and 1.75 ± 0.11.
Taken in the same sequence, the figures for GGGACC were 1.84 ± 0.063 and 1.9 ± 0.15.
Taken in the same sequence, the figures for GGCAGU were 1.76 ± 0.071 and 1.849 ± 0.0031.
For GGCAGG, the “normalized RNA/DNA level without ligand (log10)” value in series [1] came out at 1.82 ± 0.022. Besides, the “normalized RNA/DNA level with ligand (log10)” value in series [2] came out at 1.83 ± 0.042.
Taken in the same sequence, the figures for GGGAGC were 1.625 ± 0.0022 and 1.76 ± 0.1.
The corresponding values for GGGAGU are 1.67 ± 0.071 and 1.72 ± 0.16.
Take CGCGAC: the “normalized RNA/DNA level without ligand (log10)” value in series [1] stood at 1.62 ± 0.041. In addition, the “normalized RNA/DNA level with ligand (log10)” value in series [2] was 1.8 ± 0.046.
Consider CGCGAA, for which the “normalized RNA/DNA level without ligand (log10)” value in series [1] amounted to 1.23 ± 0.12. For the same variant, in series [2], the “normalized RNA/DNA level with ligand (log10)” value stood at 1.44 ± 0.11.
The corresponding values for CGCGAU are 1.58 ± 0.05 and 1.79 ± 0.14.
The corresponding values for CGCGAG are 1.743 ± 0.0083 and 1.828 ± 0.012.
Regarding GGCGUG, the “normalized RNA/DNA level without ligand (log10)” value in series [1] turned out to be 1.75 ± 0.017. For the same variant, the “normalized RNA/DNA level with ligand (log10)” value in series [2] was 1.86 ± 0.15.
Taken in the same sequence, the figures for GGCGUA were 1.6 ± 0.017 and 1.74 ± 0.13.
The corresponding values for GGCGUC are 1.68 ± 0.077 and 1.79 ± 0.17.
The corresponding values for CGGAUC are 1.63 ± 0.036 and 1.72 ± 0.15.
For CGGAUG, in series [1], the “normalized RNA/DNA level without ligand (log10)” value came to 1.64 ± 0.057. Besides, in series [2], the “normalized RNA/DNA level with ligand (log10)” value was found to be 1.77 ± 0.17.
The corresponding values for GGCGGC are 1.71 ± 0.021 and 1.89 ± 0.13.
The corresponding values for AGGACU are 1.66 ± 0.014 and 1.82 ± 0.088.
Taken in the same sequence, the figures for AGGACG were 1.589 ± 0.0076 and 1.7 ± 0.1.
As for GGCUUG, the “normalized RNA/DNA level without ligand (log10)” value in series [1] is 1.64 ± 0.062. Besides, the “normalized RNA/DNA level with ligand (log10)” value in series [2] was 1.851 ± 0.0082.
As to GGCUUC, the “normalized RNA/DNA level without ligand (log10)” value in series [1] is 1.75 ± 0.064. The “normalized RNA/DNA level with ligand (log10)” value in series [2] came out at 1.82 ± 0.12.
Consider GGCUUU, for which the “normalized RNA/DNA level without ligand (log10)” value in series [1] worked out at 1.73 ± 0.03. Also, the “normalized RNA/DNA level with ligand (log10)” value in series [2] came out at 1.88 ± 0.075.
With GGCUUA, the “normalized RNA/DNA level without ligand (log10)” value in series [1] was found to be 1.61 ± 0.074. The “normalized RNA/DNA level with ligand (log10)” value in series [2] was determined as 1.79 ± 0.12.
The corresponding values for AGCUCU are 1.76 ± 0.096 and 1.88 ± 0.17.
As to AGCUCC, in series [1], the “normalized RNA/DNA level without ligand (log10)” value is 1.81 ± 0.019. In series [2], the “normalized RNA/DNA level with ligand (log10)” value was 1.88 ± 0.089.
Taken in the same sequence, the figures for AGCUCA were 1.69 ± 0.013 and 1.81 ± 0.12.
For GGCUCU, the “normalized RNA/DNA level without ligand (log10)” value in series [1] came to 1.78 ± 0.041. In series [2], the “normalized RNA/DNA level with ligand (log10)” value was determined as 1.92 ± 0.076.
The corresponding values for GGCUCA are 1.69 ± 0.021 and 1.88 ± 0.22.
